In patent publication US20250136688A1 (Janssen / Centocor, published 2025):

How the values were obtained:
[1] = molecular target: T1, ectonucleotide pyrophosphatase/phosphodiesterase family member 3 (ENPP3) (human, UniProt O14638 1-875); experiment: cell-based or functional assay
T1 sequence (looked up): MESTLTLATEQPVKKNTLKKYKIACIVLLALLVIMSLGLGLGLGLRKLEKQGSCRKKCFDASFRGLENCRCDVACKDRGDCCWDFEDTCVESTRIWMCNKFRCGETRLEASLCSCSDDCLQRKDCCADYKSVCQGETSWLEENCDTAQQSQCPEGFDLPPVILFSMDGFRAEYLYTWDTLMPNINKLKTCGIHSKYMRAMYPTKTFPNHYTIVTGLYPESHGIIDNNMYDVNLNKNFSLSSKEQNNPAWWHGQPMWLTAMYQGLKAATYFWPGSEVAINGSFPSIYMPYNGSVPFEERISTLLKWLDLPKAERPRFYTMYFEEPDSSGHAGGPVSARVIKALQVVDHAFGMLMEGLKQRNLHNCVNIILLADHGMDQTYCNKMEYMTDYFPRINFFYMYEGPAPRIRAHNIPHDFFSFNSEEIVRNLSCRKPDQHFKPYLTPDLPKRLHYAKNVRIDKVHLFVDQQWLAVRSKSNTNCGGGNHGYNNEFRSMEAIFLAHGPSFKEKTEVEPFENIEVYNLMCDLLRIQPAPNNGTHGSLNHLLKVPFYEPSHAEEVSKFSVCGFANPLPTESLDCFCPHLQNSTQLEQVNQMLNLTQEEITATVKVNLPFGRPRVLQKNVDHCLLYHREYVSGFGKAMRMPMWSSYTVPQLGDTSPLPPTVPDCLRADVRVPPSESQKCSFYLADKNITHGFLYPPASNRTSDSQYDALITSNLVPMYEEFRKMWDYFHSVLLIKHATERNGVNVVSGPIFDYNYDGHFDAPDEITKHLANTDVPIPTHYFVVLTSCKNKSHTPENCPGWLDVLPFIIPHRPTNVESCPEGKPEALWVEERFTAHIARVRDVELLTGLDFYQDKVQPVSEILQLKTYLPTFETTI

[2] = molecular target: T1, ectonucleotide …; experiment: flow cytometry on A704 cells
[3] = molecular target: T1, ectonucleotide …; experiment: flow cytometry on VMRCRCW cells
[4] = molecular target: T1, ectonucleotide …; experiment: flow cytometry on CHO ENPP3 OE cells
[5] = molecular target: T2, ectonucleotide pyrophosphatase/phosphodiesterase family member 1 (ENPP1) (human, UniProt P22413 1-925); experiment: flow cytometry on CHOK1 cells overexpressing ENPP1
T2 construct: whole, on cells
T2 sequence (looked up): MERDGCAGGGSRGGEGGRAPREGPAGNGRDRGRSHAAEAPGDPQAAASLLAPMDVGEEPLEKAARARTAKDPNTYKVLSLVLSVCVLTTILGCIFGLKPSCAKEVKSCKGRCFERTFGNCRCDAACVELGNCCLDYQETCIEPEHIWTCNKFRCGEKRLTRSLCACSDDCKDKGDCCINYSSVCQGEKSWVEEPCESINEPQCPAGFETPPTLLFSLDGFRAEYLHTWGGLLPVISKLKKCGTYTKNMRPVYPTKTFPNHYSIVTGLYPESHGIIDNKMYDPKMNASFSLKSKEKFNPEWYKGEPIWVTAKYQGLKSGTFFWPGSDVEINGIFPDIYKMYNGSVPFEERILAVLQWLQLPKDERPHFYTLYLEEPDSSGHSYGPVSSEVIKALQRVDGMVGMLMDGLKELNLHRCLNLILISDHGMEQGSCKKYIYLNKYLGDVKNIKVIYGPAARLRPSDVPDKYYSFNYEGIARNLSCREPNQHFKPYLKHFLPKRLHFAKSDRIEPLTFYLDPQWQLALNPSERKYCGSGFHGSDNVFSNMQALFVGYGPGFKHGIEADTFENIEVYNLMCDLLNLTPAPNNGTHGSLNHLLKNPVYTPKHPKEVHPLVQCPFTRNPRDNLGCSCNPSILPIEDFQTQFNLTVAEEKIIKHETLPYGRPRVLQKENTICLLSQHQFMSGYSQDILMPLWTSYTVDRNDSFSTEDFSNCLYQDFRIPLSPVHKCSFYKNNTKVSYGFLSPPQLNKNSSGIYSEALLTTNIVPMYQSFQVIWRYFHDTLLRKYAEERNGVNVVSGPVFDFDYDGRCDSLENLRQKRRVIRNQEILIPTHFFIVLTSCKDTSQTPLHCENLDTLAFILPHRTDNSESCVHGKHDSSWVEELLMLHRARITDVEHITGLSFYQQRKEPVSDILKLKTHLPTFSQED

Human CD3 epsilon [6] = molecular target: T3, Human CD3 epsilon (human, UniProt P07766 23-207); experiment: flow cytometry on T cells, average of 6 healthy human donors
T3 construct: Stood on human T cells (pan-T cells, isolated donor T cells) as part of the TCR/CD3 complex; the other chains of the complex are not written here; also called CD3ε; CD3R
T3 sequence (P07766 23-207 limits assumed): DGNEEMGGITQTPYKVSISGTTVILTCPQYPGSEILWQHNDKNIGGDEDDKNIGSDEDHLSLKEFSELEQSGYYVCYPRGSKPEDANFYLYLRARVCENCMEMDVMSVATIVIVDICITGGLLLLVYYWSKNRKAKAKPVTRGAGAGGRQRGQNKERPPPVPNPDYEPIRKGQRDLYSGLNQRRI

Human CD3 epsilon [7] = molecular target: T3, Human CD3 epsilon; experiment: flow cytometry on T cells of healthy human donor 110040278
Human CD3 epsilon [8] = molecular target: T3, Human CD3 epsilon; experiment: flow cytometry on T cells of healthy human donor 110042496
Human CD3 epsilon [9] = molecular target: T3, Human CD3 epsilon; experiment: flow cytometry on T cells of healthy human donor 110042593
Human CD3 epsilon [10] = molecular target: T3, Human CD3 epsilon; experiment: flow cytometry on T cells of healthy human donor 110048457
Human CD3 epsilon [11] = molecular target: T3, Human CD3 epsilon; experiment: flow cytometry on T cells of healthy human donor 888668965

B1: NPP3B815 (NPP3B56×CD3B2030-N106A-spFv) (bispecific antibody, human IgG1, kappa, L234A L235A)
chain: EIVLTQSPATLSASPGERVTLSCSASSSVSYMNWYQQKPGCAPRRWIYDSSKLASGVPARFSGSGSGRDYTLTISSLEPEDFAVYYCQQWSRNPPTFGGGTKVEIKGGGSGGSGGCPPCGGSGGQVQLVQSGAEVKKPGSSVKVSCKASGYTFTRSTMHWVKQAPGQGLEWIGYINPSSAYTNYNQKFQGRVTLTADKSTSTAYMELSSLRSEDTAVYYCASPQVHYDYAGFPYWGCGTLVTVSSEPKSSDKTHTCPPCPAPEAAGGPSVFLFPPKPKDTLMISRTPEVTCVVVSVSHEDPEVKFNWYVDGVEVHNAKTKPREEQYNSTYRVVSVLTVLHQDWLNGKEYKCKVSNKALPAPIEKTISKAKGQPREPQVYTLPPSREEMTKNQVSLWCLVKGFYPSDIAVEWESNGQPENNYKTTPPVLDSDGSFFLYSKLTVDKSRWQQGNVFSCSVMHEALHNHYTQKSLSLSPGK
heavy: EVQLVESGGGRVKPGGSLRLSCAASGFTFSDYSMNWVRQAPGKGLEWVSSISSISSYVKYADSVKGRFTMSRDNAKNSLFLQMNSLRDEDMAVYYCARGHYFDYWGQGTLVTVSSASTKGPSVFPLAPSSKSTSGGTAALGCLVKDYFPEPVTVSWNSGALTSGVHTFPAVLQSSGLYSLSSVVTVPSSSLGTQTYICNVNHKPSNTKVDKKVEPKSCDKTHTCPPCPAPEAAGGPSVFLFPPKPKDTLMISRTPEVTCVVVSVSHEDPEVKFNWYVDGVEVHNAKTKPREEQYNSTYRVVSVLTVLHQDWLNGKEYKCKVSNKALPAPIEKTISKAKGQPREPQVYTLPPSREEMTKNQVSLSCAVKGFYPSDIAVEWESNGQPENNYKTTPPVLDSDGSFFLVSKLTVDKSRWQQGNVFSCSVMHEALHNRFTQKSLSLSPGK
light: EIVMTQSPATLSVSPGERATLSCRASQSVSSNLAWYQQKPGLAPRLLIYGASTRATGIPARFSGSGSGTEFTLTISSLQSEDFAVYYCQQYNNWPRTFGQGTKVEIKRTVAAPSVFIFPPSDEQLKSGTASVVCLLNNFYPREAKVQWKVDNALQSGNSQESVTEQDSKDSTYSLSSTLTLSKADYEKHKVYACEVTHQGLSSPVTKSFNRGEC
notes: Heavy Chain 1 = anti-CD3 spFv-Fc (knob); Heavy Chain 2 and Light Chain = anti-ENPP3 Fab arm NPP3B56 (hole); IgG1 with L234A, L235A, D265S; also called ENPP3×CD3
Which “T-cell activation (Flow Cytometry) EC50, A704” value [1] does the source give for B1 here?
Its value is 0.011 nM.

What about the “T-cell activation (Flow Cytometry) EC50, HepG2” value [1] of the same binder?
Its value is 0.041 nM.

What about the “T-cell activation (Flow Cytometry) EC50, VMRCRCW” value [1] of the same binder?
Its value is 0.018 nM.

And the “Tumor cell killing (Incucyte) EC50, A704” value [1]?
Its value is 0.03 nM.

And the “Tumor cell killing (Incucyte) EC50, HepG2” value [1]?
The value was 0.53 nM.

What about the “Tumor cell killing (Incucyte) EC50, TUHR4TKB” value [1] of the same binder?
Its value is 0.05 nM.

What about the “Tumor cell killing (Incucyte) EC50, TUHR10TKB” value [1] of the same binder?
Its value is 0.02 nM.

What about the “Tumor cell killing (Incucyte) EC50, VMRCRCW” value [1] of the same binder?
Its value is 0.13 nM.

What about the EC50 [2] of the same binder?
The EC50 was 1.01 nM.

What about the EC50 [3] of the same binder?
Its EC50 is 0.5 nM.

What about the EC50 [4] of the same binder?
Its EC50 is 0.51 nM.

Does B1 bind [5]?
Result: no binding

What about the EC50 (Human CD3 epsilon [6]) of the same binder?
Its EC50 is 177 nM.

What about the EC50 (Human CD3 epsilon [7]) of the same binder?
The EC50 was 253 nM.

What about the EC50 (Human CD3 epsilon [8]) of the same binder?
The EC50 was 147 nM.

And the EC50 (Human CD3 epsilon [9])?
Its EC50 is 146 nM.

What about the EC50 (Human CD3 epsilon [10]) of the same binder?
Its EC50 is 132 nM.

And the EC50 (Human CD3 epsilon [11])?
Its EC50 is 197 nM.
